US20200102387A1 (CELGENE, published 2020)
Like-named read-outs stand apart in the source and are kept apart here. Values belong to the binder of their own block, whether it stands above or below them.

Assays:
[1] = target: T1, human SIRPγ-Fc (human); assay: BLI Octet, antigen-Fc on biosensor;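 further: antigen captured on the biosensor tip and then immersed in solutions of the test antibodies, which act as the analyte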
T1 construct: a signal peptide may be part of the entry

[2] = target: T2, human SIRPβ-Fc (human); assay: BLI Octet, antigen-Fc on biosensor;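 further: antigen captured on the biosensor tip and then immersed in solutions of the test antibodies, which act as the analyte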
T2 construct: a signal peptide may be part of the entry

[3] = target: T3, human SIRPα v2-Fc (SIRPα2 extracellular domain fused to human IGHG1_Fc) (human, UniProt P78324 31-373; P0DOX5 223-449 = IgG part); assay: BLI Octet, antigen-Fc on biosensor;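 further: antigen captured on the biosensor tip and then immersed in solutions of the test antibodies, which act as the analyte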
T3 construct: as m38; also called V2 (e.g. SIRPα2); SIRPα V2:ESE

[4] = target: T4, human SIRPα v6-Fc (SIRPα6 extracellular domain fused to human IGHG1_Fc) (human, UniProt P78324 31-373; P0DOX5 223-449 = IgG part); assay: BLI Octet, antigen-Fc on biosensor;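 further: antigen captured on the biosensor tip and then immersed in solutions of the test antibodies, which act as the analyte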
T4 construct: as m38; also called V6 (e.g. SIRPα6)

[5] = target: T5, mouse SIRPα-Fc (mouse); assay: BLI Octet, antigen-Fc on biosensor
T5 construct: a signal peptide may be part of the entry; also called Ms; Ms SIRPα-Fc
T5 sequence (chain, as listed by the source limits assumed): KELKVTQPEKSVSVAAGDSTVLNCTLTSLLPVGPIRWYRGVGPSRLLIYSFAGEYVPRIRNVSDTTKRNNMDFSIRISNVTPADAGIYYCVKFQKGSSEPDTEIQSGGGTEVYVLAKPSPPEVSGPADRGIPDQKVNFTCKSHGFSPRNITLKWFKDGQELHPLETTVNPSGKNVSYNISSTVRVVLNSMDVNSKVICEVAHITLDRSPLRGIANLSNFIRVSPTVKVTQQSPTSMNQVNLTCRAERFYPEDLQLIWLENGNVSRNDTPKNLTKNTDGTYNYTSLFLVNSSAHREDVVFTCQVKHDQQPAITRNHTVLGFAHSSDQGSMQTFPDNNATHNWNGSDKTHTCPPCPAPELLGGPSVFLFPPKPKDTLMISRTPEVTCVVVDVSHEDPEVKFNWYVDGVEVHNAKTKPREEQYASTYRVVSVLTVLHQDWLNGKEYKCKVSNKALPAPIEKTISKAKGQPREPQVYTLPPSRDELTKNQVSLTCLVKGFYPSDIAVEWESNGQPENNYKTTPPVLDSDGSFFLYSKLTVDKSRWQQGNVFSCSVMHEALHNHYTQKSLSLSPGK

[6] = target: T6, human SIRPα v1-Fc (SIRPα1 extracellular domain fused to human IGHG1_Fc) (human, UniProt P78324 31-373; P0DOX5 223-449 = IgG part); assay: BLI Octet, antigen-Fc on biosensor
T6 construct: also called V1 (e.g. SIRPα1); SIRPα V1: DLN

[7] = target: T7, cyno SIRPα-Fc (cynomolgus); assay: BLI Octet, antigen-Fc on biosensor
T7 construct: a signal peptide may be part of the entry

[8] = target: T5, mouse SIRPα-Fc; assay: BLI Octet, antigen-Fc on biosensor; remark: listed apart in the source
[9] = target: T8, human SIRPα on cells (human, UniProt P78324 31-504); assay: cell binding, Hu SIRPα-CHO-K1 cells, 100 nM antibody
T8 construct: whole, on cells; also called human SIRPα-CHO; Hu SIRPα-CHO-K1

[10] = target: T9, human SIRPα v3-Fc (SIRPα3 extracellular domain fused to human IGHG1_Fc) (human, UniProt P78324 31-373; P0DOX5 223-449 = IgG part); assay: BLI Octet, antigen-Fc on biosensor
T9 construct: as m38; also called V3 (e.g. SIRPα3)

[11] = target: T10, human SIRPα v4-Fc (SIRPα4 extracellular domain fused to human IGHG1_Fc) (human, UniProt P78324 31-373; P0DOX5 223-449 = IgG part); assay: BLI Octet, antigen-Fc on biosensor
T10 construct: as m38; also called V4 (e.g. SIRPα4)

[12] = target: T11, human SIRPα v5-Fc (SIRPα5 extracellular domain fused to human IGHG1_Fc) (human, UniProt P78324 31-373; P0DOX5 223-449 = IgG part); assay: BLI Octet, antigen-Fc on biosensor
T11 construct: as m38; also called V5 (e.g. SIRPα5)

[13] = target: T12, cynomolgus SIRPα on cells (cynomolgus, UniProt P78324 31-373 (human entry)); assay: cell binding, Cyno SIRPα-CHO-K1 cells, 100 nM antibody
T12 construct: also called cyno SIRPα-CHO; Cyno SIRPα-CHO-K1; not shown: Transmembrane and cytoplasmic region of cynomolgus SIRPα
T12 chain: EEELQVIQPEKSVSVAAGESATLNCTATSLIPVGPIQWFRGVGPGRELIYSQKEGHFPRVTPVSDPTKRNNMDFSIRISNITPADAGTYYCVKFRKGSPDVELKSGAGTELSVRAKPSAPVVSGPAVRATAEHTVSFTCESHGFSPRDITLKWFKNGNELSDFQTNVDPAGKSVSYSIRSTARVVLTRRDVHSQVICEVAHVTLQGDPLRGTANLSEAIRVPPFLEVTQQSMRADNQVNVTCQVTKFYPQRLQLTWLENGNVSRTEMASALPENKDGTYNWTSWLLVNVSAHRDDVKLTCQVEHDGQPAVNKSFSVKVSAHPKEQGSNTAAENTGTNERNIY

B1: SIRPAB-1 (antibody, human IgG1, kappa, V domains shown)
VH: QVQLQESGPGLVKPSQTLSLTCTVSGGSISSGGYYWSWIRQHPGKGLEWIGSIYYSGSTYYNPSLKSRVTISVDTSKNQFSLKLSSVTAADTAVYYCAREGYHSGMDVWGQGTTVTVSS
VL: DIQMTQSPSSLSASVGDRVTITCQASQDISNYLNWYQQKPGKAPKLLIYDASNLATGVPSRFSGSGSGTDFTFTISSLQPEDIATYYCQQFAYLPWTFGGGTKVEIKR
Kd [1]: 1.43 nM
Kd [2]: 4.61 nM
Kd [3]: 44.2 nM
Kd [4]: 54.9 nM

B2: SIRPAB-6 (antibody, human IgG1, kappa, V domains shown)
VH: QVQLQESGPGLVKPSQTLSLTCTVSGGSISSGGYYWSWIRQHPGKGLEWIGYIYYSGSTYYNPSLKSRVTISVDTSKNQFSLKLSSVTAADTAVYYCAREGLDGSYGSSAWGQGTLVTVSS
VL: DIQLTQSPSSLSASVGDRVTITCQASQDISNYLNWYQQKPGKAPKLLIYDASNLETGVPSRFSGSGSGTDFTFTISSLQPEDIATYYCQQFAYLPYTFGGGTKVEIKR
Kd [1]: 8.36 nM
binding result [5]: no binding
binding result [3]: no binding
binding result [4]: no binding

B3: SIRPAB-3 (antibody, human IgG1, kappa, V domains shown)
VH: QVQLQESGPGLVKPSQTLSLTCTVSGGSISSGGWYWQWIRQHPGKGLEWIGTIYYSGSTFYNPSLKSRVTISVDTSKNQFSLKLSSVTAADTAVYYCAREGYHSGMDVWGQGTTVTVSS
VL: DIQMTQSPSSLSASVGDRVTITCQASQDISNYLNWYQQKPGKAPKLLIYDASNLATGVPSRFSGSGSGTDFTFTISSLQPEDIATYYCQQFAYLPWTFGGGTKVEIKR
Kd [1]: 0.118 nM
Kd [5]: 12.6 nM
Kd [6]: 0.2 nM
Kd [2]: 0.22 nM
Kd [7]: 7.95 nM

B4: SIRPAB-18 (antibody, human IgG1, kappa, V domains shown)
VH: QVQLQESGPGLVKPSQTLSLTCTVSGGSISSGGYYWSWIRQHPGKGLEWIGAIYYSGPIYYNPSLKSRVTISVDTSKNQFSLKLSSVTAADTAVYYCSKEGYHSGMDVWGQGTTVTVSS
VL: DIQMTQSPSSLSASVGDRVTITCQASQDISNYLNWYQQKPGKAPKLLIYDASNLATGVPSRFSGSGSGTDFTFTISSLQPEDIATYYCQQFAYLPWTFGGGTKVEIKR
Kd [8]: 2.2 nM

B5: SIRPAB-4 (antibody, human IgG1, kappa, V domains shown)
VH: QVQLQESGPGLVKPSQTLSLTCTVSGGSISSGSPYWSWIRQHPGKGLEWIGYIYASGFTYYNPSLKSRVTISVDTSKNQFSLKLSSVTAADTAVYYCAREGYHSGMDVWGQGTTVTVSS
VL: DIQMTQSPSSLSASVGDRVTITCQASQDISNYLNWYQQKPGKAPKLLIYDASNLATGVPSRFSGSGSGTDFTFTISSLQPEDIATYYCQQFAYLPWTFGGGTKVEIKR
Kd [1]: 0.144 nM
Kd [5]: 72.8 nM
Kd [6]: 0.45 nM
Kd [2]: 1 nM
Kd [7]: 18 nM
Kd [3]: 18.2 nM

B8: SIRPAB-20 (antibody, human IgG1, kappa, V domains shown)
VH: QVQLQESGPGLVKPSQTLSLTCTVSGGSISSGGYYWSWIRQHPGKGLEWIGAIYYSGPIYYNPSLKSRVTISVDTSKNQFSLKLSSVTAADTAVYYCSKEGYHSGMDVWGQGTTVTVSS
VL: DIQMTQSPSSLSASVGDRVTITCQASQDISDYLNWYQQKPGKAPKLLIYDADNLETGVPSRFSGSGSGTDFTFTISSLQPEDIATYYCQQFAYLPWTFGGGTKVEIKR
Kd [8]: 0.39 nM

B10: SIRPAB-5 (antibody, human IgG1, kappa, V domains shown)
VH: QVQLQESGPGLVKPSQTLSLTCTVSGGSISSGPAYWSWIRQHPGKGLEWIGTIYYSGSTFYNPSLKSRVTISVDTSKNQFSLKLSSVTAADTAVYYCAREGYHSGMDVWGQGTTVTVSS
VL: DIQMTQSPSSLSASVGDRVTITCQASQDISNYLNWYQQKPGKAPKLLIYDASNLATGVPSRFSGSGSGTDFTFTISSLQPEDIATYYCQQFAYLPWTFGGGTKVEIKR
Kd [1]: 0.154 nM
Kd [5]: 7.51 nM
Kd [6]: 0.165 nM
Kd [2]: 0.15 nM
Kd [3]: 27.5 nM

B11: SIRPAB-8 (antibody, human IgG1, kappa, V domains shown)
VH: QVQLVQSGAEVKKPGASVKVSCKASGYTFTSYGISWVRQAPGQGLEWMGWISPYNGNTNYAQKLQGRVTMTTDTSTSTAYMELRSLRSDDTAVYYCAREAGSSWYDFDLWGRGTLVTVSS
VL: DIQMTQSPSSVSASVGDRVTITCRASQGISSWLAWYQQKPGKAPKLLIYAASNLQSGVPSRFSGSGSGTDFTLTISSLQPEDFATYYCQQGASFPITFGGGTKVEIKR
fold increase over background (100 nM) [9]: 1310 fold
binding result [5]: no binding
Kd [10]: 22.3 nM
koff [10]: 0.0226 s⁻¹
kon [10]: 1.02e+06 M⁻¹ s⁻¹
binding result [3]: no binding
fold increase over background (100 nM) [13]: 1020 fold

Further lines, results first:

Kd [8]: 1.02 nM
B6: SIRPAB-19 (antibody, human IgG1, kappa, V domains shown)
VH: QVQLQESGPGLVKPSQTLSLTCTVSGGSISSGGYYWSWIRQHPGKGLEWIGAIYYSGPIYYNPSLKSRVTISVDTSKNQFSLKLSSVTAADTAVYYCSKEGYHSGMDVWGQGTTVTVSS
VL: DIQMTQSPSSLSASVGDRVTITCQASDDISDYLNWYQQKPGKAPKLLIYDASNIEDGVPSRFSGSGSGTDFTFTISSLQPEDIATYYCQQFAYLPWTFGGGTKVEIKR

Kd [1]: 0.14 nM
Kd [2]: 0.89 nM
Kd [7]: 19.3 nM
Kd [3]: 10.7 nM
Kd [4]: 11.9 nM
B7: SIRPAB-2 (antibody, human IgG1, kappa, V domains shown)
VH: QVQLQESGPGLVKPSQTLSLTCTVSGGSISSGGDYWAWIRQHPGKGLEWIGYIYPSGFTYYNPSLKSRVTISVDTSKNQFSLKLSSVTAADTAVYYCAREGYHSGMDVWGQGTTVTVSS
VL: DIQMTQSPSSLSASVGDRVTITCQASQDISNYLNWYQQKPGKAPKLLIYDASNLATGVPSRFSGSGSGTDFTFTISSLQPEDIATYYCQQFAYLPWTFGGGTKVEIKR

fold increase over background (100 nM) [9]: 2100 fold
Kd [1]: 0.1 nM
koff [1]: 0.0002 s⁻¹
kon [1]: 1.94e+06 M⁻¹ s⁻¹
Kd [10]: 10.2 nM
koff [10]: 0.00718 s⁻¹
kon [10]: 702000 M⁻¹ s⁻¹
Kd [11]: 0.95 nM
koff [11]: 0.00165 s⁻¹
kon [11]: 1.74e+06 M⁻¹ s⁻¹
Kd [6]: 0.15 nM
koff [6]: 0.000271 s⁻¹
kon [6]: 1.84e+06 M⁻¹ s⁻¹
Kd [2]: 2.56 nM
koff [2]: 0.00391 s⁻¹
kon [2]: 1.53e+06 M⁻¹ s⁻¹
Kd [7]: 4.59 nM
koff [7]: 0.00546 s⁻¹
kon [7]: 1.19e+06 M⁻¹ s⁻¹
Kd [3]: 13.2 nM
koff [3]: 0.00956 s⁻¹
kon [3]: 730000 M⁻¹ s⁻¹
Kd [12]: 0.66 nM
koff [12]: 0.00143 s⁻¹
kon [12]: 2.17e+06 M⁻¹ s⁻¹
Kd [4]: 12.2 nM
koff [4]: 0.0111 s⁻¹
kon [4]: 907000 M⁻¹ s⁻¹
fold increase over background (100 nM) [13]: 2390 fold
B9: SIRPAB-7 (antibody, human IgG1, kappa, V domains shown)
VH: QVQLQESGPGLVKPSQTLSLTCTVSGGSISSGEYYWEWIRQHPGKGLEWIGYIYSSGFTYYNPSLKSRVTISVDTSKNQFSLKLSSVTAADTAVYYCAREGLDGSYGSSAWGQGTLVTVSS
VL: DIQLTQSPSSLSASVGDRVTITCQASQDISNYLNWYQQKPGKAPKLLIYDASNLETGVPSRFSGSGSGTDFTFTISSLQPEDIATYYCQQFAYLPYTFGGGTKVEIKR

Kd [1]: 4.12 nM
koff [1]: 0.00558 s⁻¹
kon [1]: 1.35e+06 M⁻¹ s⁻¹
binding result [5]: no binding
Kd [10]: 0.83 nM
koff [10]: 0.000965 s⁻¹
kon [10]: 1.17e+06 M⁻¹ s⁻¹
Kd [6]: 1.65 nM
koff [6]: 0.00205 s⁻¹
kon [6]: 1.24e+06 M⁻¹ s⁻¹
Kd [2]: 4.52 nM
koff [2]: 0.00544 s⁻¹
kon [2]: 1.21e+06 M⁻¹ s⁻¹
Kd [7]: 14.9 nM
koff [7]: 0.0197 s⁻¹
kon [7]: 1.32e+06 M⁻¹ s⁻¹
Kd [3]: 17.2 nM
koff [3]: 0.0172 s⁻¹
kon [3]: 1e+06 M⁻¹ s⁻¹
Kd [12]: 7.73 nM
koff [12]: 0.00892 s⁻¹
kon [12]: 1.16e+06 M⁻¹ s⁻¹
Kd [4]: 2.71 nM
koff [4]: 0.00364 s⁻¹
kon [4]: 1.35e+06 M⁻¹ s⁻¹
B12: SIRPAB-13 (antibody, human IgG1, kappa, V domains shown)
VH: QVQLVQSGAEVKKPGASVKVSCKASGYTFHGYGISWVRQAPGQGLEWMGWISAYSGETNYAQKLQGRVTMTTDTSTSTAYMELRSLRSDDTAVYYCAREAGSSWYDFDLWGRGTLVTVSS
VL: DIQMTQSPSSVSASVGDRVTITCRASQGISSWLAWYQQKPGKAPKLLIYAASNLQSGVPSRFSGSGSGTDFTLTISSLQPEDFATYYCQQGASFPITFGGGTKVEIKR
